Results: US20190092827A1 (University of Texas, published 2019)

Target: the molecule itself
Assay: solution NMR spectroscopy, monomer-dimer equilibrium (homodimerisation)

B1: WT MIP-2 (chemokine CXCL2, also known as MIP-2 in mice) (ligand, mouse, UniProt P10889 28-100, looked up)
chain: AVVASELRCQCLKTLPRVDFKNIQSLSVTPPGPHCAQTEVIATLKGGQKVCLDPEAPLVQKIIQKILNKGKAN
notes: also called native MIP-2; wild-type (WT) chemokine
- Kd: 10 µM
